Experimental data: US20260217800A1

Target: full length gp41 HIV protein (Abcam) (human immunodeficiency virus-1 (HIV-1))
Assay: titration ELISA, wells coated with 1 µg/mL antigen, 2F5 in 4-fold dilutions from 30 µg/mL

Substance: 2F5 broadly neutralizing human monoclonal antibody
- EC50 (read off the curve): 0.1 µg/mL
